The results in this text go back to publication PMC12102759.

B1: AMOTL2 peptide 64-79 (Angiomotin-like protein 2), 16-mer library wild type / TNKS ANK (TNKS 12 ANK repeats, residues 174-649) (parent)
chain 1: QVLQQATRQEPQGQEH
chain 2: TGVPAVSGALRELLEACRNGDVSRVKRLVDAANVNAKDMAGRKSSPLHFAAGFGRKDVVEHLLQMGANVHARDDGGLIPLHNACSFGHAEVVSLLLCQGADPNARDNWNYTPLHEAAIKGKIDVCIVLLQHGADPNIRNTDGKSALDLADPSAKAVLTGEYKKDELLEAARSGNEEKLMALLTPLNVNCHASDGRKSTPLHLAAGYNRVRIVQLLLQHGADVHAKDKGGLVPLHNACSYGHYEVTELLLKHGACVNAMDLWQFTPLHEAASKNRVEVCSLLLSHGADPTLVNCHGKSAVDMAPTPELRERLTYEFKGHSLLQAAREADLAKVKKTLALEIINFKQPQSHETALHCAVASLHPKRKQVTELLLRKGANVNEKNKDFMTPLHVAAERAHNDVMEVLHKHGAKMNALDTLGQTALHRAALAGHLQTCRLLLSYGSDPSIISLQGFTAAQMGNEAVQQILSESTPIRTSD
B2: MXI1 peptide 4-19 (Max-interacting protein 1), 16-mer library wild type / SIN3A PAH2 (SIN3A PAH domain, residues 295-383) (parent)
chain 1: VKMINVQRLLEAAEFL
chain 2: SLQNNQPVEFNHAINYVNKIKNRFQGQPDIYKAFLEILHTYQKEQRNAKEAGGNYTPALTEQEVYAQVARLFKNQEDLLSEFGQFLPDA
B3: RNF115 peptide 69-84 (E3 ubiquitin-protein ligase RNF115), 16-mer library wild type / MDM2 SWIB (MDM2 SWIB/MDM2 domain, residues 17-125) (parent)
chain 1: THFAELWGHLDHTMFF
chain 2: SQIPASEQETLVRPKPLLLKLLKSVGAQKDTYTMKEVLFYLGQYIMTKRLYDEKQQHIVYCSNDLLGDLFGVPSFSVKEHRKIYTMIYRNLVVVNQQESSDSGTSVSEN
B4: PEX5 peptide 110-125 (Peroxisomal targeting signal 1 receptor), 16-mer library wild type / PEX14 Pex14 (PEX14 PEX14, residues 16-84) (parent)
chain 1: ADLALSENWAQEFLAA
chain 2: TPGSENVLPREPLIATAVKFLQNSRVRQSPLATRRAFLKKKGLTDEEIDMAFQQSGTAADEPSSLGPAT
B5: PIP5K1C peptide 642-657 (Phosphatidylinositol 4-phosphate 5-kinase type-1 gamma), 16-mer library wild type / TLN1 PTB (TLN1 Phosphotyrosine-binding (PTB) domain, residues 309-401) (parent)
chain 1: TDERSWVYSPLHYSAQ
chain 2: GVSFFLVKEKMKGKNKLVPRLLGITKECVMRVDEKTKEVIQEWNLTNIKRWAASPKSFTLDFGDYQDGYYSVQTTEGEQIAQLIAGYIDIILK

Variants of B1 are the subject of the first assay. Description: proteomic peptide phage display deep mutational scan (ProP-PD DMS): M13 P8 16-mer library selected against immobilised GST-tagged bait for four days (rounds), NGS of the eluted pools per day and pseudo-replica. The conditions noted are these: with TNKS ANK (TNKS 12 ANK repeats, residues 174-649); bait immobilised on MaxiSorp plates (10 µg), library pre-cleared on GST, 2 h binding at 4 °C, five washes; one round per day, days 1-4; value from days 2 and 3; keep out of graded; scale: average fractional NGS count over selection days 2 and 3.
Consider chain 1 Q12R, for which the screen value is 4.06e-05.
Consider chain 1 Q12K, for which the screen value is 5.93e-05.
For chain 1 A6P, the screen value was 4.91e-05.
As to chain 1 A6K, the screen value came out at 7.72e-05.
chain 1 A6Y: the screen value came out at 5.3e-05.
For chain 1 R8P, the screen value turned out to be 8.36e-05.
Same read-out and setting: the value for chain 1 R8I was 0; that for chain 1 R8F was 0; that for chain 1 E10W was 7.2e-05.
chain 1 E10R: the screen value came out at 7.98e-05.
As to chain 1 E10D, the screen value came out at 9.35e-05.
As for chain 1 P11Q, the screen value was 0.
On the same count and under the same terms, the same measure for chain 1 P11D: 0.
With chain 1 P11I, the screen value turned out to be 5.08e-05.
With chain 1 P11G, the screen value was determined as 0.000112.
On to chain 1 P11R, for which the screen value turned out to be 0.
Turning to chain 1 L3W, the screen value is 8.89e-05.
Regarding chain 1 G13I, the screen value worked out at 0.
For the variant chain 1 G13W, the screen value is 0.
For chain 1 G13Q, the screen value stood at 0.
Take chain 1 Q5G: the screen value was 2.86e-05.
The same measure, in the same setting: the value for chain 1 Q5W was 6.13e-05; that for chain 1 Q5D was 0.000115; that for chain 1 Q5N was 8.23e-05.
The same measure, in the same setting: the same measure for chain 1 Q14F: 3.1e-05.
chain 1 Q14G: the screen value is 0.000146.
Take chain 1 E15G: the screen value was found to be 6.84e-05.
On to chain 1 E15K, for which the screen value is 0.
Turning to chain 1 T7K, the screen value was determined as 7.17e-05.
Regarding chain 1 T7R, the screen value was found to be 0.
Same read-out and setting: the same measure for chain 1 T7D: 6.07e-05; for chain 1 Q9K: 4.55e-05; for chain 1 Q9I: 5.19e-05.
On the same count and under the same terms, the value for chain 1 Q9G was 7.98e-05.
As to chain 1 H16G, the screen value is 6.49e-05.
chain 1 H16F: the screen value was 7.99e-05.
As for chain 1 H16K, the screen value worked out at 8.3e-05.

In the next assay the parent is B2. The description is as above. The conditions noted are these: with SIN3A PAH2 (SIN3A PAH domain, residues 295-383); bait immobilised on MaxiSorp plates (10 µg), library pre-cleared on GST, 2 h binding at 4 °C, five washes; one round per day, days 1-4; value from days 2 and 3; keep out of graded; scale: average fractional NGS count over selection days 2 and 3.
In the case of chain 1 F15V, the screen value stood at 2.36e-05.
Regarding chain 1 F15A, the screen value was 0.00102.
On the same count and under the same terms, the value for chain 1 F15Y was 0.00011; that for chain 1 F15W was 0.000134; that for chain 1 F15T was 9.49e-05.
Take chain 1 F15I: the screen value is 0.
In the case of chain 1 F15R, the screen value is 3.85e-05.
Regarding chain 1 F15G, the screen value amounted to 4.24e-05.
On to chain 1 F15H, for which the screen value was found to be 2.84e-05.
Take chain 1 F15S: the screen value was determined as 4.3e-05.
For chain 1 I4L, the screen value was 0.00108.
Same read-out and setting: the value for chain 1 I4G was 4.79e-05; that for chain 1 I4A was 0; that for chain 1 I4D was 0.00294.
As for chain 1 I4M, the screen value came out at 0.00797.
The same measure, in the same setting: the same measure for chain 1 I4F: 0.000274.
Regarding chain 1 I4H, the screen value was 0.000141.
Take chain 1 I4K: the screen value amounted to 0.
As to chain 1 I4N, the screen value came out at 0.000113.
As to chain 1 E14V, the screen value was 0.0112.
For chain 1 E14M, the screen value amounted to 0.00144.
Take chain 1 E14S: the screen value was 0.00604.
As to chain 1 E14R, the screen value amounted to 0.00116.
Still for that read-out and setting: the same measure for chain 1 E14A: 0.0141; for chain 1 E14Q: 0.00119; for chain 1 E14G: 0.00102.
The same measure, in the same setting: the value for chain 1 E14N was 0.000159; that for chain 1 E14Y was 0.00266.
Consider chain 1 E14F, for which the screen value turned out to be 0.000859.
In the case of chain 1 E14D, the screen value is 0.0127.
Take chain 1 E14I: the screen value is 0.00251.
For the variant chain 1 E11W, the screen value amounted to 0.00397.
With chain 1 E11G, the screen value came to 0.
Same read-out and setting: the value for chain 1 E11P was 0.
With chain 1 A13F, the screen value worked out at 0.00117.
On the same count and under the same terms, the value for chain 1 A13D was 2.4e-05.
For chain 1 A13G, the screen value came out at 3.3e-05.
For chain 1 A13I, the screen value was found to be 0.000995.
As for chain 1 A13H, the screen value was found to be 0.000246.
For the variant chain 1 A13M, the screen value was found to be 8.44e-05.
On to chain 1 A13K, for which the screen value was 0.

In a further assay the parent is B3. Described as above. The conditions noted are these: with MDM2 SWIB (MDM2 SWIB/MDM2 domain, residues 17-125); bait immobilised on MaxiSorp plates (10 µg), library pre-cleared on GST, 2 h binding at 4 °C, five washes; one round per day, days 1-4; value from days 2 and 3; keep out of graded; scale: average fractional NGS count over selection days 2 and 3.
For chain 1 G8L, the screen value worked out at 6.83e-05.
For chain 1 G8I, the screen value was 3.49e-05.
As to chain 1 F3K, the screen value was 0.
For chain 1 F3M, the screen value was 0.
On the same count and under the same terms, the same measure for chain 1 F3P: 0.000115; for chain 1 L10E: 0; for chain 1 L10A: 0.
Turning to chain 1 L10W, the screen value was found to be 0.000123.
In the case of chain 1 L10Y, the screen value was determined as 0.
Still for that read-out and setting: the value for chain 1 L10G was 0; that for chain 1 L10P was 0; that for chain 1 W7N was 0.
For the variant chain 1 W7K, the screen value was found to be 0.
Still for that read-out and setting: the same measure for chain 1 W7D: 0; for chain 1 W7E: 0.
Regarding chain 1 A4R, the screen value was 5.64e-05.
For chain 1 H9P, the screen value was 0.
In the case of chain 1 H9L, the screen value was 3.74e-05.
Consider chain 1 D11V, for which the screen value is 5.15e-05.
On to chain 1 H12Y, for which the screen value was 4.94e-05.
Consider chain 1 H12W, for which the screen value was 3.9e-05.
In the case of chain 1 H12R, the screen value was found to be 4.65e-05.
chain 1 M14R: the screen value turned out to be 6.33e-05.
As for chain 1 M14I, the screen value was determined as 5.94e-05.
On to chain 1 M14K, for which the screen value is 7.54e-05.
For the variant chain 1 F15E, the screen value turned out to be 5.35e-05.
With chain 1 L6T, the screen value was 0.
The same measure, in the same setting: the same measure for chain 1 L6S: 0; for chain 1 T13E: 4.86e-05.
Same read-out and setting: the same measure for chain 1 T13F: 3.43e-05; for chain 1 T1R: 1.6e-05.
Still for that read-out and setting: the same measure for chain 1 T1E: 8.39e-05; for chain 1 T1K: 5.86e-05; for chain 1 E5I: 1.29e-05.
With chain 1 E5G, the screen value turned out to be 0.00012.
chain 1 E5F: the screen value came to 4.65e-05.
Consider chain 1 E5K, for which the screen value was found to be 0.
On to chain 1 E5L, for which the screen value was 5.37e-05.
For chain 1 E5P, the screen value amounted to 0.
Still for that read-out and setting: the value for chain 1 E5M was 4.31e-05.

The next assay covers variants of B4. The description is as above. The conditions noted are these: with PEX14 Pex14 (PEX14 PEX14, residues 16-84); bait immobilised on MaxiSorp plates (10 µg), library pre-cleared on GST, 2 h binding at 4 °C, five washes; one round per day, days 1-4; value from days 2 and 3; scale: average fractional NGS count over selection days 2 and 3.
As to chain 1 L14A, the screen value is 0.000388.
As for chain 1 L14M, the screen value came to 9.56e-05.
Take chain 1 L14W: the screen value turned out to be 0.000163.
In the case of chain 1 L14G, the screen value is 0.
Same read-out and setting: the value for chain 1 L14H was 0.000116; that for chain 1 S6I was 0.000313; that for chain 1 S6W was 0.
On the same count and under the same terms, the value for chain 1 S6Y was 0.000301.
For chain 1 S6T, the screen value was 0.
Take chain 1 S6M: the screen value turned out to be 0.000156.
Regarding chain 1 S6A, the screen value worked out at 0.000293.
Take chain 1 N8Y: the screen value was 0.000147.
As to chain 1 N8K, the screen value came to 7.71e-05.
Still for that read-out and setting: the value for chain 1 N8R was 0; that for chain 1 N8T was 0.000134; that for chain 1 Q11P was 0.
chain 1 Q11T: the screen value was 0.000165.
For the variant chain 1 Q11K, the screen value was found to be 0.
The same measure, in the same setting: the value for chain 1 Q11I was 0.000186; that for chain 1 Q11G was 0.000317; that for chain 1 W9M was 5.43e-05.
On to chain 1 W9T, for which the screen value turned out to be 0.
Take chain 1 W9L: the screen value is 0.
As to chain 1 W9G, the screen value stood at 0.
On the same count and under the same terms, the value for chain 1 W9Y was 0; that for chain 1 W9P was 0; that for chain 1 W9Q was 0.

Variants of B5 are the subject of another assay. Described as above. The conditions noted are these: with TLN1 PTB (TLN1 Phosphotyrosine-binding (PTB) domain, residues 309-401); bait immobilised on MaxiSorp plates (10 µg), library pre-cleared on GST, 2 h binding at 4 °C, five washes; one round per day, days 1-4; value from days 2 and 3; keep out of graded; scale: average fractional NGS count over selection days 2 and 3.
For chain 1 A15K, the screen value worked out at 0.
On to chain 1 A15Y, for which the screen value stood at 9.95e-05.
With chain 1 D2K, the screen value was determined as 0.000108.
On the same count and under the same terms, the value for chain 1 P10W was 8.28e-05.
chain 1 L11N: the screen value is 8.93e-05.
Regarding chain 1 L11S, the screen value is 3.05e-05.
Regarding chain 1 L11K, the screen value stood at 8.99e-05.
As to chain 1 L11D, the screen value is 0.
The same measure, in the same setting: the same measure for chain 1 L11Q: 2.8e-05; for chain 1 R4I: 3.79e-05.
Take chain 1 W6D: the screen value stood at 0.
Turning to chain 1 W6A, the screen value turned out to be 2.49e-05.
For the variant chain 1 W6Q, the screen value was found to be 0.
On to chain 1 W6G, for which the screen value was 3.45e-05.
chain 1 W6H: the screen value came out at 0.
With chain 1 S9E, the screen value turned out to be 6.87e-05.
For chain 1 S9V, the screen value was determined as 3.45e-05.
In the case of chain 1 S9L, the screen value came to 0.
As for chain 1 S9Y, the screen value turned out to be 5.79e-05.
For the variant chain 1 S9W, the screen value came out at 0.
Regarding chain 1 S9K, the screen value was found to be 0.
Same read-out and setting: the value for chain 1 S9Q was 4.86e-05.
